Laboratory results from US20090111754.

What was measured:
[1] = biological target: T1, p65-P1
T1 chain: QLRRPSDRELSE

[2] = biological target: p65-P2
[3] = biological target: T2, p65-P6
T2 chain: NGLLSGDEDFSS

[4] = biological target: T3, p65-P7
T3 chain: NGLLAGDEDFSS

[5] = biological target: T4, p65-P8
T4 chain: NGLLSGDEDFSA

B1: IKK complex immunoprecipitated from whole-cell extracts of TNF-treated cells (protein)
chain 1: MERPPGLRPGAGGPWEMRERLGTGGFGNVCLYQHRELDLKIAIKSCRLELSTKNRERWCHEIQIMKKLNHANVVKACDVPEELNILIHDVPLLAMEYCSGGDLRKLLNKPENCCGLKESQILSLLSDIGSGIRYLHENKIIHRDLKPENIVLQDVGGKIIHKIIDLGYAKDVDQGSLCTSFVGTLQYLAPELFENKPYTATVDYWSFGTMVFECIAGYRPFLHHLQPFTWHEKIKKKDPKCIFACEEMSGEVRFSSHLPQPNSLCSLVVEPMENWLQLMLNWDPQQRGGPVDLTLKQPRCFVLMDHILNLKIVHILNMTSAKIISFLLPPDESLHSLQSRIERETGINTGSQELLSETGISLDPRKPASQCVLDGVRGCDSYMVYLFDKSKTVYEGPFASRSLSDCVNYIVQDSKIQLPIIQLRKVWAEAVHYVSGLKEDYSRLFQGQRAAMLSLLRYNANLTKMKNTLISASQQLKAKLEFFHKSIQLDLERYSEQMTYGISSEKMLKAWKEMEEKAIHYAEVGVIGYLEDQIMSLHAEIMELQKSPYGRRQGDLMESLEQRAIDLYKQLKHRPSDHSYSDSTEMVKIIVHTVQSQDRVLKELFGHLSKLLGCKQKIIDLLPKVEVALSNIKEADNTVMFMQGKRQKEIWHLLKIACTQSSARSLVGSSLEGAVTPQTSAWLPPTSAEHDHSLSCVVTPQDGETSAQMIEENLNCLGHLSTIIHEANEEQGNSMMNLDWSWLTE
chain 2: MSWSPSLTTQTCGAWEMKERLGTGGFGNVIRWHNQETGEQIAIKQCRQELSPRNRERWCLEIQIMRRLTHPNVVAARDVPEGMQNLAPNDLPLLAMEYCQGGDLRKYLNQFENCCGLREGAILTLLSDIASALRYLHENRIIHRDLKPENIVLQQGEQRLIHKIIDLGYAKELDQGSLCTSFVGTLQYLAPELLEQQKYTVTVDYWSFGTLAFECITGFRPFLPNWQPVQWHSKVRQKSEVDIVVSEDLNGTVKFSSSLPYPNNLNSVLAERLEKWLQLMLMWHPRQRGTDPTYGPNGCFKALDDILNLKLVHILNMVTGTIHTYPVTEDESLQSLKARIQQDTGIPEEDQELLQEAGLALIPDKPATQCISDGKLNEGHTLDMDLVFLFDNSKITYETQISPRPQPESVSCILQEPKRNLAFFQLRKVWGQVWHSIQTLKEDCNRLQQGQRAAMMNLLRNNSCLSKMKNSMASMSQQLKAKLDFFKTSIQIDLEKYSEQTEFGITSDKLLLAWREMEQAVELCGRENEVKLLVERMMALQTDIVDLQRSPMGRKQGGTLDDLEEQARELYRRLREKPRDQRTEGDSQEMVRLLLQAIQSFEKKVRVIYTQLSKTVVCKQKALELLPKVEEVVSLMNEDEKTVVRLQEKRQKELWNLLKIACSKVRGPVSGSPDSMNASRLSQPGQLMSQPSTASNSLPEPAKKSEELVAEAHNLCTLLENAIQDTVREQDQSFTALDWSWLQTEEEEHSCLEQAS
phosphorylation of peptide substrate in immunocomplex kinase assay [1]: precipitated IKK complex can phosphorylate p65-P1 and p65-p6 | phosphorylation of peptide substrate in immunocomplex kinase assay [2]: p65-peptides in which Ser 276, 529 or 536 were mutated into alanine did not undergo phosphorylation by the IKK complex | phosphorylation of peptide substrate in immunocomplex kinase assay [3]: precipitated IKK complex can phosphorylate p65-P1 and p65-p6 | phosphorylation of peptide substrate in immunocomplex kinase assay [4]: p65-peptides in which Ser 276, 529 or 536 were mutated into alanine did not undergo phosphorylation by the IKK complex | phosphorylation of peptide substrate in immunocomplex kinase assay [5]: p65-peptides in which Ser 276, 529 or 536 were mutated into alanine did not undergo phosphorylation by the IKK complex
